These results are taken from patent publication US20250277030A1, “ANTI-NAPI2B ANTIBODIES AND METHODS OF USE” (Zymeworks BC Inc., priority 2022, published 2025).

The chains are these.
T1: NaPi2b expressed on IGROV-1 cells (Homo sapiens, UniProt O95436)
T1 construct: IGROV-1 cells express endogenous NaPi2b at a high level; endogenous in cells; host or cells: IGROV-1
T1 sequence (O95436 1-690): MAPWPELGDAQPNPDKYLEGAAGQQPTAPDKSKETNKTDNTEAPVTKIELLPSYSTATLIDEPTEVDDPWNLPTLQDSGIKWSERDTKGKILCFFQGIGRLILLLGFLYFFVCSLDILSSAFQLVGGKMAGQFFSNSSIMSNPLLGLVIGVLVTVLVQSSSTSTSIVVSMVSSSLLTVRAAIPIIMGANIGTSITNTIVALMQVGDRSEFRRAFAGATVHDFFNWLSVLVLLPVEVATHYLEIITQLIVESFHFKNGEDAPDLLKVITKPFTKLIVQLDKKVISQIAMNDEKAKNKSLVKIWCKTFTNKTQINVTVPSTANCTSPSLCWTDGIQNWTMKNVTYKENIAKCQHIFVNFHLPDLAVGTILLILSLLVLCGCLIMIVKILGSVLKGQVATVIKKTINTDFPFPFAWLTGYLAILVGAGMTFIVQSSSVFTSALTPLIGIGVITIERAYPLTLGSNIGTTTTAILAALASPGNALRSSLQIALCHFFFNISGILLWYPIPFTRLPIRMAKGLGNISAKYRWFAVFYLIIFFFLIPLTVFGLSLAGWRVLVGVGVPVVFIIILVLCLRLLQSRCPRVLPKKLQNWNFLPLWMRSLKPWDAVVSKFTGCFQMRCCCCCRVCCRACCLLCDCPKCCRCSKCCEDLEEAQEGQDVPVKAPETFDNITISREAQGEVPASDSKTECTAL

B1: v29459: humanized anti-NaPi2b IgG1/kappa antibody H2L1; VH SEQ ID NO:25, VL SEQ ID NO:28 (antibody, V domains shown)
VH: QVQLVQSGAEVKKPGASVKVSCKASGFTFTSYNVHWVRQAPGQGLEWIAAISPGNGDLSYAQKFQGRVTMTVDTSTSTVYMELSSLRSEDTAVYYCARGRTGMGAVDYWGQGTLVTVSS
VL: DIQMTQSPSSLSASVGDRVTITCRASQDVYSYLNWYQQKPGKAPKLLIYYTSRLQSGVPSRFSGSGSGTDFTLTISSLQPEDFATYYCQQYNIFPWTFGQGTKLEIK
modifications: v29451, v29455, v29459 VH (H2); v29457, v29458, v29459, v29460 VL (L1)
B2: v29449: humanized anti-NaPi2b IgG1/kappa antibody H4L3; VH SEQ ID NO:27, VL SEQ ID NO:30 (antibody, V domains shown)
VH: B1 VH with V20M, V68A, M70L, T74R, V79A
VL: B1 VL with I2V, P44V, F71Y, F83I
modifications: v29449, v29453, v29457 VH (H4); v29449, v29450, v29451, v29452 VL (L3)
B3: v29450: humanized anti-NaPi2b IgG1/kappa antibody H3L3; VH SEQ ID NO:26, VL SEQ ID NO:30 (antibody, V domains shown)
VH: B1 VH with V20M, V68A, M70L, V79A
VL: B1 VL with I2V, P44V, F71Y, F83I
modifications: v29450, v29454, v29458 VH (H3); v29449, v29450, v29451, v29452 VL (L3)
B4: v29460: humanized anti-NaPi2b IgG1/kappa antibody H1L1; VH SEQ ID NO:24, VL SEQ ID NO:28 (antibody, V domains shown)
VH: B1 VH with I48M, A49G, V72R
VL: B1 VL
modifications: v29452, v29456, v29460 VH (H1); v29457, v29458, v29459, v29460 VL (L1)

Changes are numbered by the printed parent chain.

Tested on in one series: not listed separately
In words: Thermal stability by differential scanning calorimetry (DSC). Format: physicochemical. The following applies: 0.4 mg/mL in PBS, scan 20° C. to 100° C. at 60° C./hr. The protocol:
The thermal stability of the humanized antibody variants was assessed by differential scanning calorimetry (DSC) as described below.
400 μL of purified samples primarily at concentrations of 0.4 mg/mL in PBS were used for DSC analysis with a VP-Capillary DSC (Malvern Panalytical Inc., Westborough, MA). At the start of each DSC run, 5 buffer blank injections were performed to stabilize the baseline, and a buffer injection was placed before each sample injection for referencing. Each sample was scanned from 20° C. to 100° C. at a 60° C./hr rate, with low feedback, 8 sec filter, 3 min pre-scan thermostat, and 70 psi nitrogen pressure. The resulting thermograms were referenced and analyzed using Origin 7 software (OriginLab Corporation, Northampton, MA) to determine melting temperature (Tm) as an indicator of thermal stability.
A general note: In DSC, transitions show as peaks or steps in heat flow.
With B1, the “Fab Tm” value came to 83.1 °C.

On to B2, for which the “Fab Tm” value was 80.0 °C.

As to B3, the “Fab Tm” value was 81.0 °C.

Regarding B4, the “Fab Tm” value is 80.3 °C.

The target of the next series is T1, NaPi2b expressed on IGROV-1 cells. As to the kind of experiment: Cellular binding of bivalent antibodies to IGROV-1 cells by flow cytometry (Example 13). The following applies: IGROV-1, 24 hours at 4° C.; NB = no cellular binding. The protocol: IGROV-1 cells express endogenous NaPi2b at a high level.
Briefly, cells were seeded at 50,000 cells/well in conical-bottom 96-well plates and treated with test antibody for 24 hours at 4° C. to prevent internalization. Palivizumab (anti-RSV antibody, v22277) was included as a negative control. […] Following incubation, cells were washed and stained with anti-Human IgG Fc AF647 conjugate (Jackson Immuno Research Labs, West Grove, PA; Cat. No. 109-605-098) at 4° C. for 30 min. Following incubation and washing, fluorescence was detected by flow cytometry on a BD LSRFortessa™ Cell Analyzer (BD Biosciences, Franklin Lake, NJ) with 1,000 minimum events collected per well. The AF647/APC-A GeoMean (fluorescence signal geometric mean, proportional to anti-Human AF647 binding) was calculated for the live cell population using FlowJo™ Version 10.8.1 (BD Biosciences, Franklin Lake, NJ) and plotted for each test antibody using GraphPad Prism Version 9 (GraphPad Software, San Diego, CA).
For orientation: Flow cytometry measures light scatter and fluorescence of single cells or particles in a stream.
Consider B1, for which the “Bmax (MFI)” value is reported as 40,941 MFI and the “Curve Hill Slope (h)” value turned out to be 1.2.

Take B2: the “Bmax (MFI)” value is recorded as 44,460 MFI and the “Curve Hill Slope (h)” value is given as 1.3.

Regarding B3, the “Bmax (MFI)” value is listed as 43,809 MFI and the “Curve Hill Slope (h)” value was 1.2.

Take B4: the “Bmax (MFI)” value is 40,071 MFI and the “Curve Hill Slope (h)” value was found to be 1.2.
